According to patent US20220073608A1 (JIANGSU HUAIYU PHARMACEUTICAL, published 2022):

T1: hSEMA4D ECD-His (His-tagged human SEMA4D protein extracellular domain, Met22-Arg734) (human, UniProt Q92854 22-734)
T1 construct: Expressed in CHO-S cells, purified on Ni column; also called protein immunogen; immunogen A; not shown: His tag of the pCP vector
T1 sequence: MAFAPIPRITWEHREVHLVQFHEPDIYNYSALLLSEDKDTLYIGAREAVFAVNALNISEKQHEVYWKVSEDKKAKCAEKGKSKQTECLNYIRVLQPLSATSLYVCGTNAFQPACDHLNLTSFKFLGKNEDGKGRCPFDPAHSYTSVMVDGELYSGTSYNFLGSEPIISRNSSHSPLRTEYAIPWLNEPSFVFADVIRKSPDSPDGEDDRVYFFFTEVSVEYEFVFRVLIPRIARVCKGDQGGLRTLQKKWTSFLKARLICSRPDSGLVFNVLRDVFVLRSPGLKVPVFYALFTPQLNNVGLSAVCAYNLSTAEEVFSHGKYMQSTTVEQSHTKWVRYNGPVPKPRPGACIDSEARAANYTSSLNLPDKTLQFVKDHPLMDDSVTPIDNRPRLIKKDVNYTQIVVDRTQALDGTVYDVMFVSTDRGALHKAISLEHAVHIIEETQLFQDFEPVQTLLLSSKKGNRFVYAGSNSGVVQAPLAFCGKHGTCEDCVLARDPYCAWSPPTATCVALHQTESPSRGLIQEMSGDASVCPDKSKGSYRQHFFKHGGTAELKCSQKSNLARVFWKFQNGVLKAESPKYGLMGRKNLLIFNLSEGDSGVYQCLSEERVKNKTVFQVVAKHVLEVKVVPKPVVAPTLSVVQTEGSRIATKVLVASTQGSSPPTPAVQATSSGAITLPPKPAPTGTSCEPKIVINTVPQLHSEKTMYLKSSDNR


Legend:
[1] = molecular target: T1, hSEMA4D ECD-His (His-tagged human …); assay: ELISA, coated hSEMA4D ECD-His; Ab 0.00427 nM
Protocol: (§1) First, hSEMA4D ECD-His was diluted with PBS to a final concentration of 1.0 μg/mL, and then was added to a 96-well ELISA plate, 100 μL per well, sealed with plastic film and incubated overnight at 4° C. On the next day, the plate was washed with a plate washing solution, that is, PBS buffer containing 0.05% (v/v) Tween20, for 4 times, and added with blocking solution, that is, PBS buffer containing 0.05% (v/v) Tween20 and 2% (w/w) BSA, blocked at 37° C. for 1 hour. The blocking solution was poured out and the plate was washed 4 times with the plate washing solution. 100 μL of the purified leading antibodies obtained in Examples 1 and 2 was added to each well. After incubation at 37° C. for 1 hour, the plate was washed 4 times with a plate washing solution. 100 μL of horseradish peroxidase (HRP) labeled secondary antibody (purchased from Sigma) was added at a dilution of 1:10000 to each well, and the plate was incubated at 37° C. for 1 hour, and washed 4 times with a plate washing solution. 100 μL TMB substrate was added to each well, and the plate was incubated at room temperature for 5 minutes, and added with 100 μL stop solution (1.0N HCl) to each well. A microplate reader (SpectraMax M5e, purchased from Molecular Device) was used to read the A450 nm value. […] Wherein, the data in the table was the OD450 nm value.

[2] = molecular target: T2, monkey SEMA4D, full length, on CHO-K1 cells (CHO-K1 cSEMA4D) (monkey); assay: FACS, CHO-K1 cSEMA4D cells; Ab 0.000853 nM
T2 construct: whole, on cells; also called monkey SEMA4D recombinant cells
Protocol: After the cells were counted, they were diluted with PBS to 2×10⁶ cells per milliliter. After washing, 100 μL of diluted and purified leading antibodies was added to each well and the plate was incubated for 1 hour on ice. […] Cells were washed 2 times by centrifugation with FACS buffer. The cells were suspended with 200 μL of FACS buffer, FACS (FACS Verse, purchased from BD) was used to detect and analyze the results.

[3] = molecular target: T1, hSEMA4D ECD-His (His-tagged human …); assay: ELISA, coated hSEMA4D ECD-His; Ab 0.00213 nM
Protocol: as §1

Row | OD450 nm [1] | MFI [2] | OD450 nm [3] | Binder
1 | 0.0623 | 29 | 0.0673 | 37C4F7 (antibody, V domains shown, Mouse monoclonal antibody purified from hybridoma supernatant on protein A) VH: EFQLQQSGPEVVKPGASVKISCKASGYSFTDYNMNWMKQSKGKSLEWIGVINPNYGTTTYNQNFKGKATLTVDQSSSTAYMQLNSLTSEDSAVYYCARDMYYVYAYYTMDYWGQGTSVTVSS VL: DVVMTQTPLSLPVSLGDQASISCRSSQSLVHSNGHTYLHWYLQRPGQSPTLLIYKVSNRFSGVPDRFSGSGSGTDFTLKISRVEAEDLGVYFCSQGTHVPWTFGGGTKLEIK
2 | 0.0744 | 26.1 | 0.0738 | 38H2E3 (antibody, V domains shown, Mouse monoclonal antibody purified from hybridoma supernatant on protein A) VH: EFQLQQSGPEVVKPGASVKISCKASGYSFTDYNMNWMKQSKGKSLEWIGVISPDYGTTTYNQNFKDKATLTVDQSSSTAYMQLNSLTSEDSAVYYCAKDMYYVYAYYTMDYWGHGTSVTVSS VL: DVVMTQTPLSLPVSLGDQASISCRSSQSLVHSNGHTYLHWYLQRPGQSPTLLIYKVSNRFSGVPDRVSGSGSGTDFTLKISRVEAEDLGVYFCSQGTHVPRTFGGGTKLEIK
3 | 0.0851 | 54.5 | 0.11 | 42B7G2 (antibody, V domains shown, Mouse monoclonal antibody purified from hybridoma supernatant on protein A) VH: QVQLQQSGAELARPGASVKLSCKASGYTFTDYGISWVKQRTGQGLEWIGEIYLRNDNSYYNEKFKGKATLTADKSSNTAYMELRSLTSEDSAVYFCARWGDHGNNYEDAMDYWGQGTSVTVSS VL: DIVLTQSPASLAMSLGKRATISCRASESVSIIGSNLIHWYQQKPGQPPKLLIYHASNLETGVPARFSGSGSRTDFTLTIDPVEEDDVAIYYCLQSRKVPYTFGGGTKLEIK
4 | 0.0685 | 49.7 | 0.0858 | 32C8F10 (antibody, V domains shown, Mouse monoclonal antibody purified from hybridoma supernatant on protein A) VH: EVQLQQSGAELVRPGASVKLSCTASGFNIKDEYIHWVKQRPEQGLEWIGWIDPANGHTEYASRFQAKATITADTSSNTAYLQLSSLTSEDTAVYYCTTGDYDGFAYWGQGTLVTVST VL: QIVLTQSPAIMSASPGEKVTISCSARSSVSYMYWYQQKPGSSPKPWIYRTSNLASGVPARFSGSGSGTSYSLTISSMEAEDAATYYCQHYHTYPYTFGGGTKLEIK
5 | 0.0915 | 61.5 | 0.109 | 31G10C5 (antibody, V domains shown, Mouse monoclonal antibody purified from hybridoma supernatant on protein A) VH: EVQLQQSGAELVRPGASVKLSCTASGFNIKDDYIHWVKQRPEQGLEWIGWIDPANGHIEYASNFQAKATITADTSSNTAYLQLSSLTSEDTAVYYCTTGDYDGFTYWGQGTLVTVST VL: QIVLTQSPAIMSASPGEKVTISCSARSSVSYMYWYQQKPGSSPKPWIYRTSNLASGVPARFSGSGSGTSYSLTISSMEAEDAATYYCQHYHTYPYTFGGGTKLEIK
6 | 0.0939 | 81.4 | 0.141 | 31C11G2 (antibody, V domains shown, Mouse monoclonal antibody purified from hybridoma supernatant on protein A) VH: EVQLQQSGAELVRPGASVKLSCTASGFNIKDEYIHWVKQRPEQGLEWIGWIDPANGHTEYASRFQAKATITADTSSNTAYLQLSSLTSEDTAVYYCTTGDYDGFVYWGQGTLVTVST VL: QIVLTQSPAIMSASPGEKVTIFCSARSSVSYMYWYQQKPGSSPKPWIYRTSNLASGVPARFSGSGSGTSYSLTISSMEAEDAATYYCQHYHTYPYTFGGGTKLEIK
7 | 0.0638 | 29.5 | 0.0929 | 37F11F9 (antibody, V domains shown, Mouse monoclonal antibody purified from hybridoma supernatant on protein A) VH: EVQLQQSGPVLVKPGASVKMSCKASGYTFTDYYMNWVKQSHGKSLEWIGLINPYSGGSTFNQKFKAKATLTVDKSSSSAYMDLNSLTSEDSAVYYCARVGDGYYGVTHGMDYWGQGTSVTVSS VL: DIVMTPSQKFMSTTVGDRVSITCKASQNVGTAVAWYQQKPGQSPTILIYSASNRYTGVPDRFTGSGSGTDFTLTISNMKSEDLADYFCQQYYIYPFTFAAGTKLELK
